Data from patent US8436159B2, “Glyphosate resistant class I 5-endolpyruvylshikimate-3-phosphate synthase (EPSPS)” (Monsanto Technology LLC, priority 2003, dated 2013).
Changes are numbered by the printed parent chain. In names and notes the source's numbering stands.

Tests used:
[1] = biological target: T1, maize (Zea mays) class I EPSPS, wild type (WT), pMON70461, DNA SEQ ID NO:3 (Zea mays, UniProt O24566); experiment: EPSPS steady-state kinetics, wild-type maize EPSPS; format: biochemical
T1 construct: pMON70461
T1 sequence (O24566 with tags, fused parts or gaps): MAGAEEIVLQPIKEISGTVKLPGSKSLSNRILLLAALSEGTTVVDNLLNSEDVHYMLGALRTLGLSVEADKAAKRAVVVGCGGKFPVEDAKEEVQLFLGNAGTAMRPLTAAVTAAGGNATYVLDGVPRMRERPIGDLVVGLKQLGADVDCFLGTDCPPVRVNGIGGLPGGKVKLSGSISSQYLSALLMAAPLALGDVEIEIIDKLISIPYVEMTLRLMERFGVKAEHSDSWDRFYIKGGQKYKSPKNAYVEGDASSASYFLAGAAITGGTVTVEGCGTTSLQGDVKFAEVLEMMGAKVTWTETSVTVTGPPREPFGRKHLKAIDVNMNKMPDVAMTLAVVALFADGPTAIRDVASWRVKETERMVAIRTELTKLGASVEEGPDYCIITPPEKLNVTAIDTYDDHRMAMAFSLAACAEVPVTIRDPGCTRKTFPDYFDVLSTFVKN
Description: The wild type and variant EPSPS coding sequences were cloned into a pET-19b base vector (Novagen, Madison, Wis.). The plant (maize) class I EPSPS variants so created were assigned pMON plasmid numbers (Table 2). The variant EPSPS proteins were purified from the E. coli host using the protocols outlined in the pET system manual, 9th edition (Novagen) or by the following method. A single colony or a few microliters from a glycerol stock was inoculated into 4 mL LB medium containing 0.1 mg/mL carbenicillin antibiotic. The culture was incubated with shaking at 37 C for 4 hours. The cultures were stored at 4° C. overnight. The following morning, 1 mL of the overnight culture was used to inoculate 100 mL of fresh LB medium containing 0.1 mg/mL carbenicillin. The cultures were incubated with shaking at 37 C for 4-5 hours, then the cultures were placed at 4° C. for 5-10 minutes. The cultures were then induced with IPTG (1 mM final concentration) and incubated with shaking at 30 C for 4 hours or 20° C. overnight. The cells were harvested by centrifugation at 7000 rpm for 20 minutes at 4° C. The supernatant was removed and the cells were frozen at −70° C. until further use. The proteins were extracted by resuspending the cell pellet in BugBuster reagent (Novagen) using 5 mL reagent per gram of cells. Benzonase (125 Units) was added to the resuspension and the cell suspension was then incubated on a rotating mixer for 20 minutes at room temperature. The cell debris was removed by centrifugation at 10,000 rpm for 20 minutes at room temperature. The supernatant was passed through a 0.45 μm syringe-end filter and transferred to a fresh tube. A pre-packed columns containing 1.25 mL of His-Bind resin was equilibrated with 10 mL of 5 mM imidazole, 0.5 M NaCl, 20 mM Tris-HCl pH 7.9 (1× Binding Buffer). The column was then loaded with the prepared cell extract. After the cell extract had drained, the column was then washed with 10 mL of 1× Binding Buffer, followed with 10 mL of 60 mM imidazole, 0.5 M NaCl, 20 mM Tris-HCl pH 7.9 (1× Wash Buffer). […]

E. coli EPSPS, native = conditions: read-out: apparent Km for PEP; native enzyme; cited from earlier work
[2] = tested on: E. coli EPSPS variant, alanine for the glycine at position 96 (G96A); conditions: read-out: apparent Km for PEP; glyphosate-resistant isolate; cited from earlier work
[3] = substrate: C=C(OP(=O)(O)O)C(=O)O; experiment: EPSPS steady-state kinetics, TIPA variant; format: biochemical, maize (Zea mays); conditions: other: pH 7.0, 1 mM shikimate-3-phosphate, Table 2
Description: The double variants of the present invention were made using pMON58452 (FIG. 5) as the template. This pMON58452 EPSPS gene template contains the maize EPSPS double variant T102I, P106T (TIPT) that was constructed by mutagenesis of pMON70467 with the mutagenesis primers mEmut-9-U and mEmut-10-L. The various mutagenesis primer sequences were designed and then were synthesized by Invitrogen Corp., Custom Primers and used in combination in a PCR to create the variant EPSPS coding sequences. The PCR was set up in a 50 μl reaction in the following manner: dH2O 38 μl; 2 mM dNTP 1 μL; 10× buffer 5 μL; pMON58452 1 μL (10 ng); primer-U 2 μL; primer-L 2 μL; pfu Turbo enzyme 1 μL. PCR was carried out on a MJ Research PTC-200 thermal cycler using the following program: Step 1—94° C. for 30 seconds; Step 2—94° C. for 30 seconds; Step 3—55° C. for 1 minute; Step 4—68° C. for 14 minute; Step 5—go to step 2, 16 times; Step 6—End. At the end of the PCR, 1 μl of the restriction enzyme DpnI was added to each 50 μl of PCR reaction and the mixture was incubated at 37° C. for 1 hour. The proline (106) amino acid codon of pMON58452 was substituted in subsequent steps to provide additional variants that include TWO (primer P106G-U, SEQ ID NO:14 and -L, SEQ ID NO:15), TIPA (primer P106A-U, SEQ ID NO:16 and -L, SEQ ID NO:17), TIPV (primer P106V-U, SEQ ID NO:18 and -L, SEQ ID NO:19), TIPL (primer P106L-U, SEQ ID NO:20 and -L, SEQ ID NO:21), TIPI (primer P106I-U, SEQ ID NO:22 and -L, SEQ ID NO:23), TIPM (primer P106M-U, SEQ ID NO:24 and -L, SEQ ID NO:25), and TIPC (primer P106C-U, SEQ ID NO:26 and -L, SEQ ID NO:27). The double variants of the gene encoding the EPSPS protein were generated using the PCR conditions described above.
The wild type and variant EPSPS coding sequences were cloned into a pET-19b base vector (Novagen, Madison, Wis.). […] The variant EPSPS proteins were purified from the E. coli host using the protocols outlined in the pET system manual, 9th edition (Novagen) or by the following method. […]

[4] = substrate: C=C(OP(=O)(O)O)C(=O)O; experiment: EPSPS steady-state kinetics, TIPS variant; format: biochemical, maize (Zea mays); conditions: other: pH 7.0, 1 mM shikimate-3-phosphate
Description: Mutations were made using plant EPSPS DNA coding sequence template as an example of class I EPSPSs. […] All the variants were made using the PCR-based QuickChange™ Site-directed Mutagenesis Kit (Stratagene, La Jolla, Calif., Cat. No. 200518) following the manufactures instructions. The DNA sequence of each mutagenesis primer was designed, and then ordered from Invitrogen Corp., Custom Primers (Carlsbad, Calif.). Mutagenesis of a maize wild-type DNA molecule (SEQ ID NO:3) encoding the EPSPS enzyme was performed using pMON70461 (FIG. 3) as the template. pMON70461 contains the unmodified wild-type maize EPSPS coding sequence. […] The single EPSPS variants were created by mutagenesis of the maize wild-type EPSPS DNA coding sequence as controls for measuring the efficacy of the double variant EPSPSs.
The wild type and variant EPSPS coding sequences were cloned into a pET-19b base vector (Novagen, Madison, Wis.). […] The variant EPSPS proteins were purified from the E. coli host using the protocols outlined in the pET system manual, 9th edition (Novagen) or by the following method. […] Protein concentration was determined using Bio-Rad protein assay (Bio-Rad Laboratories, CA). […] The samples were read at OD595 after ˜5 minutes using a spectraMAX 250 plate reader (Molecular Devices Corporation, Sunnyvale, Calif.) and compared to the standard curve. […]

[5] = substrate: C=C(OP(=O)(O)O)C(=O)O; experiment: purified protein, by the assay type; conditions: other: pH 7.0, 1 mM shikimate-3-phosphate
Description: (§1) The double variants of the present invention were made using pMON58452 (FIG. 5) as the template. This pMON58452 EPSPS gene template contains the maize EPSPS double variant T102I, P106T (TIPT) that was constructed by mutagenesis of pMON70467 with the mutagenesis primers mEmut-9-U and mEmut-10-L. The various mutagenesis primer sequences were designed and then were synthesized by Invitrogen Corp., Custom Primers and used in combination in a PCR to create the variant EPSPS coding sequences. The PCR was set up in a 50 μl reaction in the following manner: dH2O 38 μl; 2 mM dNTP 1 μL; 10× buffer 5 μL; pMON58452 1 μL (10 ng); primer-U 2 μL; primer-L 2 μL; pfu Turbo enzyme 1 μL. PCR was carried out on a MJ Research PTC-200 thermal cycler using the following program: Step 1—94° C. for 30 seconds; Step 2—94° C. for 30 seconds; Step 3—55° C. for 1 minute; Step 4—68° C. for 14 minute; Step 5—go to step 2, 16 times; Step 6—End. At the end of the PCR, 1 μl of the restriction enzyme DpnI was added to each 50 μl of PCR reaction and the mixture was incubated at 37° C. for 1 hour. […]

[6] = substrate: C=C(OP(=O)(O)O)C(=O)O; experiment: EPSPS steady-state kinetics, TIPV variant; format: biochemical, maize (Zea mays); conditions: other: pH 7.0, 1 mM shikimate-3-phosphate
Description: (§2) The variant EPSPS proteins were purified from the E. coli host using the protocols outlined in the pET system manual, 9th edition (Novagen) or by the following method. A single colony or a few microliters from a glycerol stock was inoculated into 4 mL LB medium containing 0.1 mg/mL carbenicillin antibiotic. The culture was incubated with shaking at 37 C for 4 hours. The cultures were stored at 4° C. overnight. The following morning, 1 mL of the overnight culture was used to inoculate 100 mL of fresh LB medium containing 0.1 mg/mL carbenicillin. The cultures were incubated with shaking at 37 C for 4-5 hours, then the cultures were placed at 4° C. for 5-10 minutes. The cultures were then induced with IPTG (1 mM final concentration) and incubated with shaking at 30 C for 4 hours or 20° C. overnight. The cells were harvested by centrifugation at 7000 rpm for 20 minutes at 4° C. The supernatant was removed and the cells were frozen at −70° C. until further use. The proteins were extracted by resuspending the cell pellet in BugBuster reagent (Novagen) using 5 mL reagent per gram of cells. Benzonase (125 Units) was added to the resuspension and the cell suspension was then incubated on a rotating mixer for 20 minutes at room temperature. The cell debris was removed by centrifugation at 10,000 rpm for 20 minutes at room temperature. […]

[7] = substrate: C=C(OP(=O)(O)O)C(=O)O; experiment: EPSPS steady-state kinetics, TIPI variant; format: biochemical, maize (Zea mays); conditions: other: pH 7.0, 1 mM shikimate-3-phosphate
Description: as §1

[8] = substrate: C=C(OP(=O)(O)O)C(=O)O; experiment: EPSPS steady-state kinetics, TIPT variant; format: biochemical, maize (Zea mays); conditions: other: pH 7.0, 1 mM shikimate-3-phosphate
Description: as §1

[9] = substrate: C=C(OP(=O)(O)O)C(=O)O; experiment: EPSPS steady-state kinetics, TIPM variant; format: biochemical, maize (Zea mays); conditions: other: pH 7.0, 1 mM shikimate-3-phosphate
Description: as §2

[10] = substrate: C=C(OP(=O)(O)O)C(=O)O; experiment: EPSPS steady-state kinetics, TIPG variant; format: biochemical, maize (Zea mays); conditions: other: pH 7.0, 1 mM shikimate-3-phosphate
Description: as §1

## C=C(OP(=O)(O)O)C(=O)O [PEP, phosphoenolpyruvate]
[1]; Table 5
  kcat: 8.8 ± 0.5 s⁻¹
[1]; pH 7.0, 1 mM shikimate-3-phosphate, Table 2, read-out: Km-PEP
  Km: 27 ± 4 µM
E. coli EPSPS, native
  Km: 10 µM
[2]
  Km: 220 µM

B1: maize (Zea mays) class I EPSPS variant TIPA (T102I, P106A), pMON42481, ZmTIPA SEQ ID NO:39 (Zea mays; P106A/T102I) (protein)
chain: AGAEEIVLQPIKEISGTVKLPGSKSLSNRILLLAALSEGTTVVDNLLNSEDVHYMLGALRTLGLSVEADKAAKRAVVVGCGGKFPVEDAKEEVQLFLGNAGIAMRALTAAVTAAGGNATYVLDGVPRMRERPIGDLVVGLKQLGADVDCFLGTDCPPVRVNGIGGLPGGKVKLSGSISSQYLSALLMAAPLALGDVEIEIIDKLISIPYVEMTLRLMERFGVKAEHSDSWDRFYIKGGQKYKSPKNAYVEGDASSASYFLAGAAITGGTVTVEGCGTTSLQGDVKFAEVLEMMGAKVTWTETSVTVTGPPREPFGRKHLKAIDVNMNKMPDVAMTLAVVALFADGPTAIRDVASWRVKETERMVAIRTELTKLGASVEEGPDYCIITPPEKLNVTAIDTYDDHRMAMAFSLAACAEVPVTIRDPGCTRKTFPDYFDVLSTFVKN
notes: pMON42481
[3]
  Km: 10.2 ± 1.1 µM
  kcat: 2.1 ± 0.1 s⁻¹
  kcat/Km: 0.2 µM^−1s^−1

B2: maize (Zea mays) class I EPSPS variant TIPS (T102I, P106S), pMON70462 (Zea mays; P106S/T102I) (protein)
chain: B1 chain with A106S
notes: pMON70462
[4]
  Km: 10.6 ± 1.6 µM

B3: maize (Zea mays) class I EPSPS variant TIPC (T102I, P106C), pMON42485 (Zea mays; P106C/T102I) (protein)
chain: B1 chain with A106C
[5]
  Km: 47.0 ± 4.0 µM

B4: maize (Zea mays) class I EPSPS variant TIPV (T102I, P106V), pMON42482 (Zea mays; P106V/T102I) (protein)
chain: B1 chain with A106V
notes: pMON42482
[6]
  Km: 109.3 ± 12.9 µM

B5: maize (Zea mays) class I EPSPS variant TIPI (T102I, P106I), pMON42486 (Zea mays; P106I/T102I) (protein)
chain: B1 chain with A106I
notes: pMON42486
[7]
  Km: 60.3 ± 2.8 µM

B6: maize (Zea mays) class I EPSPS variant TIPT (T102I, P106T), pMON58452, ZmTIPT SEQ ID NO:38 (Zea mays; P106T/T102I) (protein)
chain: B1 chain with A106T
notes: pMON58452
[8]
  Km: 11.2 ± 1.8 µM

B7: maize (Zea mays) class I EPSPS variant TIPM (T102I, P106M), pMON42484 (Zea mays; P106M/T102I) (protein)
chain: B1 chain with A106M
notes: pMON42484
[9]
  Km: 143.3 ± 12.6 µM

B8: maize (Zea mays) class I EPSPS variant TIPG (T102I, P106G), pMON42480 (Zea mays; P106G/T102I) (protein)
chain: B1 chain with A106G
notes: pMON42480
[10]
  Km: 23.0 ± 3.7 µM
